Measurements published in the supplement of paper PMC9112550, “Optimization of the antimicrobial peptide Bac7 by deep mutational scanning” (BMC Biology, 2022).

Each sequence was assayed on Escherichia coli TOP10 (assay: shrunken log2 fold change of peptide-encoding DNA abundance (4.5 h post-induction vs induction); higher = less antimicrobial activity (less host growth inhibition)). Details: time post-induction: 4.5 h; library: site-saturation at positions 5, 18, 19, 20.
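Also: peptides expressed intracellularly from a pBAD plasmid library in pooled LB shake-flask culture, induced with 0.3% L-arabinose, DNA abundance read by NGS, three biological replicates, DESeq2 with apeglm shrinkage.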

Sequence	shrunken log2 fold change
RRIRRRPPRLPRPRPRPGLRPRP	0.338
RRIRPRPPRLPRPRPRPRRSPRP	0.124
RRIRPRPPRLPRPRPRPPPCPRP	0.384
RRIRRRPPRLPRPRPRPRLLPRP	0.474
RRIRTRPPRLPRPRPRPVYFPRP	-0.558
RRIRWRPPRLPRPRPRPFCGPRP	0.437
RRIRYRPPRLPRPRPRPCSTPRP	-0.212
RRIRRRPPRLPRPRPRPQIRPRP	0.178
RRIRWRPPRLPRPRPRPKAWPRP	0.743
RRIRARPPRLPRPRPRPHAVPRP	0.123
RRIRRRPPRLPRPRPRPDSHPRP	-0.00863
RRIRFRPPRLPRPRPRPTFIPRP	-0.44
RRIRLRPPRLPRPRPRPTVYPRP	-0.146
RRIRDRPPRLPRPRPRPMWNPRP	0.108
RRIRIRPPRLPRPRPRPQWVPRP	-0.023
RRIRARPPRLPRPRPRPEHKPRP	0.0692
RRIRARPPRLPRPRPRPYGFPRP	0.00293
RRIRFRPPRLPRPRPRPNDEPRP	-0.648
RRIRARPPRLPRPRPRPDRMPRP	0.0124
RRIRWRPPRLPRPRPRPQSRPRP	0.299

Sequence	shrunken log2 fold change
RRIRHRPPRLPRPRPRPQHYPRP	-0.483
RRIRMRPPRLPRPRPRPCTKPRP	2.28
RRIRYRPPRLPRPRPRPGIDPRP	-0.16
RRIRMRPPRLPRPRPRPMRMPRP	0.759
RRIRWRPPRLPRPRPRPKLIPRP	-0.211
RRIRRRPPRLPRPRPRPESFPRP	0.0965
RRIRMRPPRLPRPRPRPCGKPRP	0.0716
RRIRRRPPRLPRPRPRPVNHPRP	0.177
RRIRCRPPRLPRPRPRPWTKPRP	-0.402
RRIRWRPPRLPRPRPRPHVEPRP	-0.042
RRIRDRPPRLPRPRPRPCMCPRP	-0.0426
RRIRDRPPRLPRPRPRPFLSPRP	0.0846
RRIRKRPPRLPRPRPRPCAEPRP	0.951
RRIRERPPRLPRPRPRPGIEPRP	0.00615
RRIRWRPPRLPRPRPRPWSWPRP	1.16
RRIRYRPPRLPRPRPRPYVWPRP	-0.389
RRIRGRPPRLPRPRPRPMSGPRP	0.0585
RRIRVRPPRLPRPRPRPEYMPRP	-0.305
RRIRRRPPRLPRPRPRPAKHPRP	0.219
RRIRPRPPRLPRPRPRPEMSPRP	0.147

Sequence	shrunken log2 fold change
RRIRFRPPRLPRPRPRPKNRPRP	-0.284
RRIRNRPPRLPRPRPRPYHYPRP	-0.722
RRIRKRPPRLPRPRPRPSYGPRP	-0.141
RRIRQRPPRLPRPRPRPYSCPRP	0.0133
RRIRPRPPRLPRPRPRPTKNPRP	0.0886
RRIRMRPPRLPRPRPRPENPPRP	2.79
RRIRFRPPRLPRPRPRPPKQPRP	0.226
RRIRLRPPRLPRPRPRPTNNPRP	-0.524
RRIRMRPPRLPRPRPRPVQEPRP	0.051
RRIRHRPPRLPRPRPRPHNKPRP	-0.866
RRIRWRPPRLPRPRPRPVMYPRP	-0.0288
RRIRLRPPRLPRPRPRPRRNPRP	0.0956
RRIRNRPPRLPRPRPRPEGPPRP	0.026
RRIRFRPPRLPRPRPRPQGLPRP	-0.462
RRIRRRPPRLPRPRPRPVPLPRP	0.385
RRIRERPPRLPRPRPRPSWHPRP	-0.215
RRIRKRPPRLPRPRPRPPLTPRP	0.542
RRIRVRPPRLPRPRPRPMFNPRP	-0.4
RRIRIRPPRLPRPRPRPEWPPRP	0.0836
RRIRHRPPRLPRPRPRPSPRPRP	0.0803
